Laboratory results from PMC4967826, “Combined structural, biochemical and cellular evidence demonstrates that both FGDF motifs in alphavirus nsP3 are required for efficient replication” (Open Biology, 2016).

What was measured:
[1] = biological target: nsP3-F3AC of virus SFV-F3AC (Semliki Forest virus)
G3BP-1 F15A mutant = settings: isothermal titration calorimetry; ref [28]; cited from earlier work
Text: The importance of the hydrophobic FGDF-binding site of G3BP-1 has been validated in previous binding studies using mutated versions of G3BP in which Phe-33 and Phe-15 were substituted to tryptophan and alanine, respectively. Both Phe-33 and Phe-15 are localized centrally within the hydrophobic binding site that coordinates the phenylalanine residues of the FGDF motif (figure 2b,c).

[2] = biological target: GFP-nsP3-36-F3AN (Semliki Forest virus); test: MST
[3] = biological target: GFP-nsP3-36-F3AC (Semliki Forest virus); test: MST
[4] = biological target: GFP-nsP3-36 (GFP fused to the C-terminal 36 residues of SFV nsP3, C-terminal His tag) (Semliki Forest virus); test: MST
[5] = biological target: GFP-nsP3-36-F3ANC (Semliki Forest virus); test: MST

G3BP-1 (endogenous, BHK cells) (from UniProt A0A9J7JVX0 1-465) (natural protein)
G3BP-1 in the IP relative to SFV WT (densitometry) [1]: 49.5%

DSGFSFGSK [nucleoporin (Nup)-derived peptide]
binding affinity to F15A mutant of G3BP-1 (G3BP-1 F15A mutant): five times lower binding affinity

NTF2-like domain of human G3BP-1 (residues 1-139) (from UniProt Q13283 1-139) (domain or fragment)
Kd [2]: 5.8 µM
binding constant of the high-affinity binding event [3]: 410 nM
binding constant of the low-affinity binding event [3]: 23 µM
binding constant of the high-affinity binding event [4]: 150 nM
binding constant of the low-affinity binding event [4]: 4.1 µM
Kd [5]: 17 µM
